According to paper PMC8866119 (Nature, 2021):

What follows are binders tested against SARS-CoV-2 Omicron (B.1.1.529) RBD (SARS-CoV-2 Omicron B.1.1.529 (BA.1), strain).

| Binder | binding result |
| --- | --- |
| BD55-3525 (antibody, V domains shown) VH: EVQVVESGGGLVKPGGSLRLSCAGSGFTFNYAWMNWVRQAPGKGLEWVGRIKSETGGGTTDYAAPVRGRFTISRDDSKDTVFLQMNSLKTEDTAVYYCTTEATVTSWDAFDVWGQGTLVTVST VL: QSVLTQPPSASGTSGQRVTISCSGSSSNIGSNTVNWYQQIPRRAPKLLIYRNNQRPSGVPDRFSASKSGTSASLAISGLHSEDEADYYCAAWDDRLNGFVFGTGTKVTVL | binds |
| DH1193 (antibody, V domains shown) VH: QVQLVESGGGVVQPGRSLRLSCAASGFTFSNYGMHWVRQAPGKGLEWVTVISYDGSNKYYADSVKGRFTISRDNSKNTLYLQMNSLRAEDTAVYYCAKVLTWSIHPEDYYYGMDVWGQGTTVTVSS VL: QSALTQPPSASGSPGQSVTISCTGTSSDVGGYNYVSWYQQHPGKAPKLMIYEVSQRPSGVPDRFSGSKSGNTASLTVSGLQAEDEADYYCSSYAGSNIGVFGGGTTLTVL | binds |
| DH1044 (antibody, V domains shown) VH: QVQLVESGGGVVQPGRSLRLSCAASGFTFSSYGMHWVRQAPGKGLEWVAVISFDGSNKYYVDSVKGRFTISRDNSKNTLYLQMNSLRAEDTAVYYCAKDMHNDYGDYVSYYFYYGMDVWGQGTTVTVSS VL: QSVLTQPPSVSAAPGQKVIISCSGSSSNIGNNYVSWYQQLPGTAPKLLIYENNKRPSGIPDRFSGSKSGTSATLGITGLQTGDEADYYCGTWDSSLRTDVFGGGTKLIVL | binds |
| C556 (antibody, V domains shown) VH: QVQLVQSGAEVKKPGASVKVSCKASGYTFTYYYMHWVRQAPGQGLEWMGIINPSGGSTSYAQKFQGRVTMTRDTSTSTVYMELSSLRSEDTAVYYCARPLLPGETGSLNRLDYWGQGTLVTVSS VL: not shown | binds |
| BD55-3152 (antibody, V domains shown) VH: QVQLVQSGAEVKKPGASVIVSCKASGYRFISHYIHWVRQAPGQGLEWMGKIDPSGRGTTYAQKLQGRVSVTRDTSTSSVYMALSGLRSDDTAVYYCARDRFPLSDPYVWGSPLGGLDVWGQGTTVIVSS VL: SYDLTQPPSVSVSPGQTARITCSGDALPSQYVYWYQQRPGQAPVLVMYKDSERPPGIPERFSGSTSGTTATLTITGVQAEDEADYYCQSADASTTYHVFGGGTKVTVV | binds |
| BD55-4325 (antibody, V domains shown) VH: QAQLVQSGAEVKKPGASVKVSCEAIGYAFKTYGISWVRQAPGQGLEWVGWISGHDGTTNYAQKFQGRVTLTTDTSTNTAFLEVKSLRSDDTAVFYCARDKAYSGYDYWSTIFDYWGQGTLVTVST VL: SYVLTQPPSVSVAPGKTATITCGGNNIRSKSVQWFQQRPGQAPILVLYYDTDRPSGIPERFSGSNSGNTATLTISRVEAGDEADYYCQVWDSTTDHYLFGTGTKVTVL | binds |
| BD55-1831 (antibody, V domains shown) VH: QVQLQESGPGLVKPSQTLSLTCTVSGGSISNGDYYWSWIRQPPGKGLEWIGYIHNSGSTYKKLSLRSRLTISVDTSKNQFSLKLSSVTAADTAVYYCARTASPSGAWYFDFWGRGTLVTVSS VL: SYVLTQPPSVSVAPGQTARITCGGNDIGSKNVHWYQQKPGQAPLLVVYDDTDRPSGIPERFSGSNSGNPATLTISRVEAGDEADYYCQVWDSSFDHVIFGGGTKLTVL | binds |
| BD-744 (antibody, V domains shown) VH: EVQLVESGGGLVQPGRSLRLSCAASGFTFDDYAMHWVRQAPGKGLEWVSGASWNSGTIGYADSVKGRFIIIRDNAKNSLYLQMNSLRSEDTASYYCAKDFSRDGDAFDIWGQGTMVTVSS VL: SYVLPQPPSVSVAPGKTARITCGGNNIEHKSVHWYQQKPRQAPVVVMYYDSDRPSGIPERFSGSNSGNTATLIISRVEAGDEAEYYCQVWDRSSDQPVFGGGTKLTVL | binds |
| COV2-2389 (antibody, V domains shown) VH: EVQLVESGGGLVQPGRSLRLSCAASGFTFDDYAMHWVRQAPGKGLEWVSGISWNSGTIGYADSVKGRFIISRDNAKNSLYLQMNSLRPEDTALYYCAKDIIRQGEDGMDVWGQGTTVTVSS VL: DIQMTQSPSSLSASVGDRVTITCRASQNIASYLNWYQQKPGKAPKLLIYAASSLQSGVPSRFSGSGSGTDFTLTISSLQPEEFATYYCQQSYSTPWTFGQGTKVEIK | binds |
| BD-914 (antibody, V domains shown) VH: QVQLVQSGAEVTKPGSSVKVSCKTSGDTFSLYPISWVRQAPGQGLEWMGRIIPIVGIADYAQKFQGRVTITADKSTSTAYMELSSLRSEDTAIYYCARDGNQYYYDSGGDYYVNYWGQGTLITVSS VL: DIQMTQSPSSLSASVGDRVTITCQASQDIRKDLNWYRQRPGKAPKLLIYDASNLETGVPSRFSGSGSGTHFTFTISGLQPEDVATYYCQQYDNVPVTFGPGTKVDIR | binds |
| C576 (antibody, V domains shown) VH: QVQLVQSGAEVKKPGSSVKVSCKASGGTFSIYAISWVRQAPGQGLEWMGGIIPILGTANYAQKFQGRVTITADESTSTAYMELSSLRSEDTAVYYCASFHVAYGDYIPFDYWGQGTLVTVSS VL: not shown | binds |
| BD55-3637 (antibody, V domains shown) VH: QVQLVESGGGVVQPGRSLRLSCAASGFTFSTYGMHWVRQAPGKGLQWVAFISDGGNKKYFADSVKGRFTISRDNSKNTLYLQMSSLRTEDTAVYYCAKERYCAGGDCSNPFFDYWGQGTLVTVSS VL: DIQVTQSPSSLSASVGDRVTITCRASQSISSSLNWYQHKPGNAPKLLIYAASSLQSGVPSRFSGSGSGTDFILTISSLQPEDFATYYCQQSHSFPRTFGQGTKVEFR | binds |
| BD-923 (antibody, V domains shown) VH: EVLLVESGGGLVQPGRSLRLSCTASGFTFEDYAMHWVRQAPGKGLEWVSGMSWNSGTIGYADSVRGRFIISRDNAKNSLYLQMNSLRAEDTALYYCGKDRGFGESLYYVMDVWGQGATVTVSS VL: QSALTQPASVSGSPGQSITISCTGTSSDVGVYNYVSWYQQHPGKAPKLMIYNVSDRPSGVSNRFSGSKSGNTASLTISGLQAEDEADYYCSSYTSSSIVIFGGGTKLTVL | binds |
| BD-907 (antibody, V domains shown) VH: QVQLVQSGSELKKPGASVKVSCKASGYTFSSYYLNWVRQAPGQGLEWMGWIDTNTGNPTYAQAFTGRFVFSLDTSVSTAYLQIGSLQANDTAVYYCAREGGGWSGLYYYFGMDVWGQGTTVTVSS VL: EIVLTQSPGTLSLSPGERATVSCRASQSIGSNYLAWYQQKPGQAPRLLIYGASSRATGIPDRFSGSGSGTDFTLTISRLEPEDFAVYYCQQYGSSPPYTFGQGTKLEIK | binds |
| BD-713 (antibody, V domains shown) VH: EVQLVESGGGLVQPGRSLRLSCAASGFTFDDYAMHWVRQAPGKGLEWVSGMSWNSGTIGYADSVKGRFTIIRDNAKNSLYLQMIRLRAEDTALYYCAKASPRLDTAMAPFDYWGQGTLVTVSS VL: SYVLTQPPSVSVAPGKTARITCGGNNIGSKSVHWYQQKPGQAPALVIYYDNDRPSGLPERFSGSNSGNTATLTISRVEAGDEADYYCQVWHSSSDSLVFGGGTKLTVL | binds |
| BD55-1294 (antibody, V domains shown) VH: QLHLQESGPGLVKPSETLSLTCTVSGGSIFSSTYYWGWIRQTPGKGLEWIGSFYNGGSTYYNPSLESRVTISEDTSKNQFSLKLSSVTAADTAVYYCARDLSETASYHNWFDPWGQGTLVTVSS VL: DIQLTQSPSFLSASVGDRITITCRASQAISNYLAWYQQKPGKAPKLLIYGASTLHSGVPSRFSGSHSGSEFTLTISGLQPEDFATYYCQQLNSFGPGTKVDIK | binds |
| BD-932 (antibody, V domains shown) VH: EVQLVESGGALVHPGRSLRLSCTASGFTFEDYAMHWVRQAPGKGLEWVSGVSWNSGTIGYADSVKGRFIISRDNAKNSLYLQMLSLRVEDTAFYYCAKHGGLLDTSLDQYYFDYWGQGTLVTVSS VL: not shown | binds |
| BD-796 (antibody, V domains shown) VH: QVQLVQSGAEVKKPGSSVKVSCKASGGTFSSYAINWMRQAPGQGLEWMGGIIPILGIPNSAQKFQGRVTITADKSTSTAYMELSSLRSEDTAVYYCARMYNYDSSGLEADAFDIWGQGTMVTVSS VL: QSVLTQPPSVSGAPGQRVTISCTGSSSNIGAGYDVHWYQQLPGTAPKLLIYGNSNRPSGVPDRFSGSKSGTSASLAITGLQAEDEADYYCQSYDSSLSGVVFGGGTKLTVL | binds |
| BD-913 (antibody, V domains shown) VH: QVQLVQSGAEVKKPGSSVKVSCKASGGTFSTYAISWVRQAPGQGLEWMGGIIPIVGIANDAQKFQGRVTITADKSTSTAYMELSSLRSEDTAVFYCARAQRKQWPVEDAYDIWGQGTMVTVSS VL: QSVLTQPPSVSGAPGQRVTISCTGSSSNIGAGYDVHWYQQLPGTAPKLLIYGNSNRPSGVPDRFSGSKSGTSASLAITGLQAEDEADYYCQSYDSSLSGSVFGGGTKVTVL | binds |
| BD-815 (antibody, V domains shown) VH: EVQLVQSGPEVKKPGESLKISCKASGYSFISNWIGWVRQMPGKGLEWMGIIYPGDSDTRYSPSFQGQVTISADRSITTAYLQWSSLKASDTAIYYCARLGSSWYWVDYWGQGTLVTVSS VL: SSELTQDPAVSVALGQTVRITCQGDSLRSYHASWYQQKPGQAPILVIYDKNNRPSGIPDRFSGSGSGNTASLTITGAQAEDEADYYCNSRDSSGDHLVFGTGTKVTVL | binds |
| BD55-5386 (antibody, V domains shown) VH: QVQLLQSGAEVKKPGSSVTVSCKASGGTFTNSAINWVRQAPGQGLEWIGGIIPIIGPTSYAQKFQGRVTITADESSTTAYLDLRSLRSDDTAVYYCAKAHCGDCTPPRGYYFYYFGMDVWGQGTTVTVSS VL: SYELTQPPSVSVSPGQTARITCSGDALPKQYSYWYQQRPGQAPVLLIYKDNERPSGIPERFSGSSSGTTVTLTISGVQAEDEADYYCQSADASSTYVVFGGGTKLTVL | binds |
| C581 (antibody, V domains shown) VH: EVQLVQSGAEVKKPGESLKISCKGSGYRFTSYWIAWVRQMPGKGLEWMGIIYPGDSDTRYSPSFQGQVTISADQSISTAYLQWSSLKASDTAMYYCARGGPPGGVKLELTDYWGQGALVTVSS VL: not shown | binds |
| BD55-1104 (antibody, V domains shown) VH: EVQLVQSGAEVKKPGESLKISCKGSGYSFTTYWTGWVRQVPGKGLEWMGLIYPRDSDARYTPSFEGHVTISADNSINTAYLHWSSLKASDTAIYYCVSAGDTGWRGHADYWGQGTLVTVSS VL: DIQMTQSPSSLSASVGDRVTITCRASLDIRNYLVWFQQKPGTAPKSLIYEASTLQSGVPSRFSGSGSGTDFTLTISSLRPEDFATYYCQQYNTWPFTFGGGTKVEIK | binds |
